# Assay results as given in patent US20140193357A1.
# Several values for one entry are separate records, joined by “and”; a condition that tells them apart may be missing. Equal values may be shown once.
# Molecular target: T1, G-CSF receptor on the surface of murine myeloid leukemia cell line G-NFS-60 (murine (cell line G-NFS-60)) (UniProt P40223)
# T1 sequence (looked up): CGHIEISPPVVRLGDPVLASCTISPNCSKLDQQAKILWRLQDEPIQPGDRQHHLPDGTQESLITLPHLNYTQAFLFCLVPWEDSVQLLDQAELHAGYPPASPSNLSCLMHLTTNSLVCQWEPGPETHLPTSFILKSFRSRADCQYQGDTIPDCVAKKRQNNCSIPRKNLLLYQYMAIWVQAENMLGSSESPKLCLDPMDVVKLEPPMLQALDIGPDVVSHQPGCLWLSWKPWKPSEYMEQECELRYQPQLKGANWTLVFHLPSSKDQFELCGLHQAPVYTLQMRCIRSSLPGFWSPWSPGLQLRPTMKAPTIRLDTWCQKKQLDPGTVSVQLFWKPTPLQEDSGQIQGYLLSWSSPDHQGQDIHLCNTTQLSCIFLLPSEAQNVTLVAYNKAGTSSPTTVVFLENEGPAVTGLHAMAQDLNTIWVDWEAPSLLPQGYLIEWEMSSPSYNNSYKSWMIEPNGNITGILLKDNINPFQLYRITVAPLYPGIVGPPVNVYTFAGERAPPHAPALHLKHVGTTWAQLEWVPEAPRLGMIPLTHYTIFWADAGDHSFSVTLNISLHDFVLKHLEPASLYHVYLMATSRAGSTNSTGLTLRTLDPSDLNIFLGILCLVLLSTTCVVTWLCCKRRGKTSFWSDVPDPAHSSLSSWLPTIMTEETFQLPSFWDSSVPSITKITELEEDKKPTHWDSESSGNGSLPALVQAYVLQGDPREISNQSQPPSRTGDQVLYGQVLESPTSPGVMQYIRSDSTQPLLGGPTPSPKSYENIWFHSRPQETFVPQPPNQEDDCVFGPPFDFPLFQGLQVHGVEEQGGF
# Assay: cell-based or functional assay
substance,measurement,value
Monomer G-CSF (from UniProt P09919 31-204) (ligand),"Biologic activity (proliferation of G-NFS-60 cells, MTS dye)",1e+08 IU/mg and 6e+07 IU/ml
